We go through one molecule from US20250230235A1 (NOVELTY NOBILITY, published 2025).

This assay addresses human c-Kit (wild type) on the cell surface of LAD2 cells (human, UniProt P10721 26-976). In words: cell-based or functional assay.

human c-Kit (wild type) on the cell surface of LAD2 cells, sequence (P10721 26-976): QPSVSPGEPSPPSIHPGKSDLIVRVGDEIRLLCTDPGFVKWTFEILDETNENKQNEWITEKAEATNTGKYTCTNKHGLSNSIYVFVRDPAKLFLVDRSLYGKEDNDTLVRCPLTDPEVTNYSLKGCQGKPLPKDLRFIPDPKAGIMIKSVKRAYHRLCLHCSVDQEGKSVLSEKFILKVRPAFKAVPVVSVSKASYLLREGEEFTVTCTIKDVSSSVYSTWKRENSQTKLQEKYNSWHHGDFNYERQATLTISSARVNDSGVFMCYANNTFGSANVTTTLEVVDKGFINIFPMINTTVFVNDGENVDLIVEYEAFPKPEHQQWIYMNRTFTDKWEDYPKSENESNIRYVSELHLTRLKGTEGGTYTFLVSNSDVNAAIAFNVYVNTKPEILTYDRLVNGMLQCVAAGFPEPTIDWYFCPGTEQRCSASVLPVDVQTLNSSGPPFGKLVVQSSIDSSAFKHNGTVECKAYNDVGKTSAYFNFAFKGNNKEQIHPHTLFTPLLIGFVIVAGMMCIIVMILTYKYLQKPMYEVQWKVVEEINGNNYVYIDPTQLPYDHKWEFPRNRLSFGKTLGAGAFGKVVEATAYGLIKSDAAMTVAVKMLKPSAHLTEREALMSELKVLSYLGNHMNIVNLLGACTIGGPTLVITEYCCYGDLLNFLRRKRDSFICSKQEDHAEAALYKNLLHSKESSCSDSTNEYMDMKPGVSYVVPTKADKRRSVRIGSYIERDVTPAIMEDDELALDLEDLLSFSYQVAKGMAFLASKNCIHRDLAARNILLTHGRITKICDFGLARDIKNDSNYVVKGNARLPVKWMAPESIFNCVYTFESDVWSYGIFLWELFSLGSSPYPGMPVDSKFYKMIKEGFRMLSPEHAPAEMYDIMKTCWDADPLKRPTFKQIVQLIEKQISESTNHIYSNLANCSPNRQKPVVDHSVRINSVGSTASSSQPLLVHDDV

B1: 2G4 antibody (antibody, human IgG1, kappa, V domains shown)
VH: QVQLVESGGGVVQPGRSLRLSCAASGFTFSRYGMHWVRQAPGKGLEWVAVIWYDGTNKDYTDSVRGRFTISRDNSKNTLYLQMNSLRAEDTAVYYCAREDWAEAFDMWGQGTTVTVSS
VL: not shown
With B1, the “IC50 of degranulation (β-hexosaminidase release) increased by SCF and streptavidin in IgE-sensitized LAD2 cells” value turned out to be 0.00636 µg/mL; the “half-maximal inhibitory concentration (IC50) of SCF-mediated proliferation of LAD2 cells” value stood at 0.058 µg/mL.
